Legend:
[1] = anti-V5 Western blot of CHO conditioned media; details: glycan lost; control: WT WIF1-V5-His
[2] = anti-V5 Western blot of CHO cell lysates, GAPDH-normalised; details: glycan lost; control: WT WIF1-V5-His

Protein | expression_or_secretion, percent_of_wt [1] | localisation_or_trafficking [2]
WIF1 (Wnt Inhibitory Factor 1): T255A (protein) parent chain: MARRRAFPAFALRLWSILPCLLLLRADAGQPPEESLYLWIDAHQARVLIGFEEDILIVSEGKMAPFTHDFRKAQQRMPAIPVNIHSMNFTWQAAGQAEYFYEFLSLRSLDKGIMADPTVNVPLLGTVPHKASVVQVGFPCLGKQDGVAAFEVNVIVMNSEGNTILRTPQNAIFFKTCQQAECPGGCRNGGFCNERRVCECPDGFYGPHCEKALCIPRCMNGGLCVTPGFCICPPGFYGVNCDKANCSTTCFNGGTCFYPGKCICPPGLEGEQCELSKCPQPCRNGGKCIGKSKCKCPKGYQGDLCSKPVCEPGCGAHGTCHEPNKCQCREGWHGRHCNKRYGASLMHAPRPAGAGLERHTPSLKKAEDRRDPPESNYIW | decreases, decrease of more than 50% vs 100 | increases
WIF1 (Wnt Inhibitory Factor 1): T255/319A (protein) parent chain: MARRRAFPAFALRLWSILPCLLLLRADAGQPPEESLYLWIDAHQARVLIGFEEDILIVSEGKMAPFTHDFRKAQQRMPAIPVNIHSMNFTWQAAGQAEYFYEFLSLRSLDKGIMADPTVNVPLLGTVPHKASVVQVGFPCLGKQDGVAAFEVNVIVMNSEGNTILRTPQNAIFFKTCQQAECPGGCRNGGFCNERRVCECPDGFYGPHCEKALCIPRCMNGGLCVTPGFCICPPGFYGVNCDKANCSTTCFNGGTCFYPGKCICPPGLEGEQCELSKCPQPCRNGGKCIGKSKCKCPKGYQGDLCSKPVCEPGCGAHGTCHEPNKCQCREGWHGRHCNKRYGASLMHAPRPAGAGLERHTPSLKKAEDRRDPPESNYIW | decreases, decrease of more than 50% vs 100 | increases

From publication PMC7565927
